From the supplement of paper PMC7877785
± gives the uncertainty stated by the source.

Assay: self-splicing fitness, log relative to wild type (ln ratio); higher = more splicing; Tetrahymena group I intron in knt gene, E. coli kanamycin selection, DiMSum; sequences stand for … in CUCUCU…GGAGGGAAAAGUUAUCAGGCAUGCACCUGGUAGCUAGUCUUUAAACCAAUAGAUUGCAUCGGUUUAAAAGGCAAGACCGUCAAAUUGCGGGAAAGGGGUCAACAGCCGUUCAGUACCAAGUCUCAGGGGAAACUUUGAGAUGGCCUUGCAAAGGGUAUGGUAAUAAGCUGACGGACAUGGUCCUAACCACGCAGCCAAGUCCUAAGUCAACAGAUCUUCUGUUGAUAUGGAUGCAGUUCACAGACUAAAUGUCGGUCGGGGAAGAUGUAUUCUUCUCAUAAGAUAUAGUCGGACCUCUCCUUAAUGGGAGCUAGCGGAUGAAGUGAUGCAACACUGGAGCCGCUGGGAACUAAUUUGUAUGCGAAAGUAUAUUGAUUAGUUUUGGAGUACUCGUGGUCG
In short: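 A randomised library covering all eight P1ex-region intron nucleotides was built with the intron in the knt kanamycin-resistance gene on pET-22b(+) and held in E. coli BL21(DE3). Cells were grown overnight at 37°C or 30°C on LB agar, with or without 25 μg/mL kanamycin, plus 100 μg/mL carbenicillin, 50 μM IPTG and 0.2% rhamnose, and pooled colonies were amplicon-sequenced on an Illumina HiSeq 2500. DiMSum fitness is the error-weighted combination of wild-type-normalised replicate fold changes, kanamycin versus none.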

| Sequence | self-splicing fitness (ln) (30 °C) | self-splicing fitness (ln) (37 °C) |
| --- | --- | --- |
| AGGCAGCAAUAUUACGUCAU | -1.87 ± 0.058 | -1.1 ± 0.077 |
| AGGCAGCAAUAUUACGUCGC | -2.48 ± 0.12 | -2.07 ± 0.14 |
| AGGCAGCAAUAUUACGUUAG | -3.85 ± 0.26 | -2.14 ± 0.16 |
| AGGGAGCAAUAUUACGAAUU | – | -0.525 ± 0.18 |
| AGGGAGCAAUAUUACGAGCU | -3.49 ± 0.29 | – |
| AGGGAGCAAUAUUACGAUUA | -2.12 ± 0.18 | -2.51 ± 0.35 |
| AGGGAGCAAUAUUACGCACG | -2.17 ± 0.49 | -0.794 ± 0.39 |
| AGGGAGCAAUAUUACGCGGC | -1.89 ± 0.2 | -2.05 ± 0.31 |
| AGGGAGCAAUAUUACGGAGC | -2.84 ± 0.38 | -1.95 ± 0.48 |
| AGGGAGCAAUAUUACGGGCG | -4.23 ± 0.32 | -2.35 ± 0.25 |
| AGGGAGCAAUAUUACGGGGG | -2.67 ± 0.2 | -3.03 ± 0.37 |
| AGGGAGCAAUAUUACGGUCA | -2.38 ± 0.18 | -2.08 ± 0.21 |
| AGGGAGCAAUAUUACGUACA | -2.14 ± 0.18 | -2.46 ± 0.28 |
| AGGGAGCAAUAUUACGUACG | -3.78 ± 0.4 | -2.2 ± 0.42 |
| AGGGAGCAAUAUUACGUAGG | – | -2.14 ± 0.47 |
| AGGGAGCAAUAUUACGUAGU | -3.35 ± 0.23 | -2.19 ± 0.35 |
| AGGGAGCAAUAUUACGUAUA | -3.19 ± 0.42 | – |
| AGGGAGCAAUAUUACGUGCG | -2.99 ± 0.2 | -2.4 ± 0.29 |
| AGGGAGCAAUAUUACGUUAG | -3.02 ± 0.2 | -3.66 ± 0.37 |
| AGGGAGCAAUAUUACGUUGG | -4.08 ± 0.37 | -2.5 ± 0.33 |
| AGGUAGCAAUAUUACGACCC | -2.38 ± 0.047 | -1.69 ± 0.064 |
| AGGUAGCAAUAUUACGACUC | -0.66 ± 0.018 | -0.19 ± 0.037 |
| AGGUAGCAAUAUUACGACUU | -0.167 ± 0.014 | -0.0309 ± 0.034 |
| AGGUAGCAAUAUUACGAUAU | -1.16 ± 0.014 | -0.423 ± 0.034 |
| AGGUAGCAAUAUUACGAUUC | -1.1 ± 0.015 | -0.359 ± 0.034 |

| Sequence | self-splicing fitness (ln) (30 °C) | self-splicing fitness (ln) (37 °C) |
| --- | --- | --- |
| AGGUAGCAAUAUUACGAUUU | 0.169 ± 0.014 | 0.0198 ± 0.033 |
| AGGUAGCAAUAUUACGCAGC | -3.808 ± 0.038 | -2.67 ± 0.046 |
| AGGUAGCAAUAUUACGCGAA | -1.61 ± 0.017 | -0.832 ± 0.035 |
| AGGUAGCAAUAUUACGCGCC | -2.6 ± 0.032 | -1.56 ± 0.043 |
| AGGUAGCAAUAUUACGCGUG | -1.485 ± 0.013 | -0.784 ± 0.032 |
| AGGUAGCAAUAUUACGCUAU | -3.873 ± 0.037 | -3.13 ± 0.047 |
| AGGUAGCAAUAUUACGCUUU | -3.041 ± 0.022 | -1.76 ± 0.036 |
| AGGUAGCAAUAUUACGGCAA | -0.557 ± 0.017 | -0.339 ± 0.034 |
| AGGUAGCAAUAUUACGGCAU | -0.129 ± 0.014 | 0.107 ± 0.033 |
| AGGUAGCAAUAUUACGGCCU | -3.7 ± 0.04 | -2.6 ± 0.053 |
| AGGUAGCAAUAUUACGGCUU | -0.489 ± 0.015 | -0.184 ± 0.034 |
| AGGUAGCAAUAUUACGGGCG | -1.03 ± 0.015 | -0.573 ± 0.034 |
| AGGUAGCAAUAUUACGGUCA | -0.279 ± 0.014 | 0.00808 ± 0.033 |
| AGGUAGCAAUAUUACGGUCC | -0.156 ± 0.017 | 0.00993 ± 0.035 |
| AGGUAGCAAUAUUACGUCGC | -2.37 ± 0.023 | -1.48 ± 0.037 |
| AGGUAGCAAUAUUACGUGAA | -2.213 ± 0.016 | -1.34 ± 0.034 |
| AGGUAGCAAUAUUACGUGAC | -2.734 ± 0.023 | -1.69 ± 0.037 |
| AGGUAGCAAUAUUACGUGGU | -3.697 ± 0.024 | -2.33 ± 0.036 |
| AGGUAGCAAUAUUACGUGUG | -2.883 ± 0.016 | -1.88 ± 0.033 |
| AGGUAGCAAUAUUACGUUAC | -3.617 ± 0.033 | -2.85 ± 0.048 |
| AGGUAGCAAUAUUACGUUUU | -2.585 ± 0.016 | -1.54 ± 0.034 |
| AGUAAGCAAUAUUACGAAAC | -3.94 ± 0.36 | – |
| AGUAAGCAAUAUUACGAUGU | -3.05 ± 0.15 | -1.17 ± 0.13 |
| AGUAAGCAAUAUUACGAUUG | -2.97 ± 0.29 | -2.54 ± 0.29 |
| AGUAAGCAAUAUUACGAUUU | -0.313 ± 0.1 | -0.0587 ± 0.13 |

| Sequence | self-splicing fitness (ln) (30 °C) | self-splicing fitness (ln) (37 °C) |
| --- | --- | --- |
| AGUAAGCAAUAUUACGCAUU | -2.48 ± 0.15 | -2.26 ± 0.18 |
| AGUAAGCAAUAUUACGCCUA | -0.00931 ± 0.12 | 0.208 ± 0.12 |
| AGUAAGCAAUAUUACGCGGU | -2.66 ± 0.24 | -2.46 ± 0.29 |
| AGUAAGCAAUAUUACGCUAC | -0.918 ± 0.3 | – |
| AGUAAGCAAUAUUACGGAAG | -2.55 ± 0.18 | -2.2 ± 0.21 |
| AGUAAGCAAUAUUACGGAUU | -1.92 ± 0.13 | -0.84 ± 0.16 |
| AGUAAGCAAUAUUACGGGGU | -3.24 ± 0.22 | -2.46 ± 0.26 |
| AGUAAGCAAUAUUACGUAAU | -3.15 ± 0.16 | -2.2 ± 0.17 |
| AGUAAGCAAUAUUACGUAUA | -2.38 ± 0.42 | -1.97 ± 0.28 |
| AGUAAGCAAUAUUACGUCCU | -0.602 ± 0.21 | 0.854 ± 0.23 |
| AGUAAGCAAUAUUACGUCGA | -2.11 ± 0.21 | -1.61 ± 0.2 |
| AGUAAGCAAUAUUACGUCUU | -0.968 ± 0.072 | -0.0602 ± 0.078 |
| AGUAAGCAAUAUUACGUGCU | -2.64 ± 0.23 | -1.2 ± 0.14 |
| AGUAAGCAAUAUUACGUGGU | -4.77 ± 0.29 | -2.59 ± 0.17 |
| AGUAAGCAAUAUUACGUUAA | -2.91 ± 0.21 | -1.63 ± 0.18 |
| AGUAAGCAAUAUUACGUUCG | -1.92 ± 0.14 | -1.17 ± 0.17 |
| AGUCAGCAAUAUUACGAGAC | -4.42 ± 0.39 | -2.56 ± 0.24 |
| AGUCAGCAAUAUUACGAGCC | -0.0313 ± 0.25 | 0.0229 ± 0.3 |
| AGUCAGCAAUAUUACGAGCU | -1.97 ± 0.17 | -0.789 ± 0.19 |
| AGUCAGCAAUAUUACGAGGG | -4.73 ± 0.31 | -3.06 ± 0.25 |
| AGUCAGCAAUAUUACGAGUC | -2.45 ± 0.11 | -1.09 ± 0.11 |
| AGUCAGCAAUAUUACGCACA | -0.062 ± 0.12 | -0.284 ± 0.14 |
| AGUCAGCAAUAUUACGCACC | -0.932 ± 0.12 | 0.383 ± 0.13 |
| AGUCAGCAAUAUUACGCCGG | -2.86 ± 0.48 | – |
| AGUCAGCAAUAUUACGCCUC | -2.68 ± 0.32 | -1 ± 0.42 |

| Sequence | self-splicing fitness (ln) (30 °C) | self-splicing fitness (ln) (37 °C) |
| --- | --- | --- |
| AGUCAGCAAUAUUACGCGAG | -1.57 ± 0.16 | -0.523 ± 0.16 |
| AGUCAGCAAUAUUACGCGUA | -0.295 ± 0.067 | 0.106 ± 0.07 |
| AGUCAGCAAUAUUACGGAAC | -2.87 ± 0.15 | -1.89 ± 0.15 |
| AGUCAGCAAUAUUACGGCGG | -0.596 ± 0.1 | -0.561 ± 0.12 |
| AGUCAGCAAUAUUACGGGUA | -2.02 ± 0.15 | -1.54 ± 0.14 |
| AGUCAGCAAUAUUACGUCCA | -1.25 ± 0.13 | -1.05 ± 0.15 |
| AGUCAGCAAUAUUACGUCGU | -0.476 ± 0.049 | -0.105 ± 0.064 |
| AGUCAGCAAUAUUACGUGAA | -1.5 ± 0.065 | -1.09 ± 0.082 |
| AGUCAGCAAUAUUACGUUCA | -1.5 ± 0.099 | -0.803 ± 0.081 |
| AGUCAGCAAUAUUACGUUCU | -0.318 ± 0.072 | 0.0939 ± 0.11 |
| AGUCAGCAAUAUUACGUUUU | -1.49 ± 0.074 | -0.278 ± 0.088 |
| AGUGAGCAAUAUUACGAAGA | -2.9 ± 0.35 | -1.85 ± 0.18 |
| AGUGAGCAAUAUUACGAAUA | – | -1.17 ± 0.22 |
| AGUGAGCAAUAUUACGACAC | -2.16 ± 0.29 | -1.64 ± 0.17 |
| AGUGAGCAAUAUUACGACAG | -2.83 ± 0.33 | -1.67 ± 0.34 |
| AGUGAGCAAUAUUACGACCU | -1.32 ± 0.15 | -0.41 ± 0.2 |
| AGUGAGCAAUAUUACGACUA | -1.06 ± 0.17 | -0.32 ± 0.15 |
| AGUGAGCAAUAUUACGACUG | -0.0618 ± 0.23 | 0.551 ± 0.31 |
| AGUGAGCAAUAUUACGAGUU | -2.21 ± 0.18 | -1.28 ± 0.18 |
| AGUGAGCAAUAUUACGAUGC | -2.29 ± 0.28 | -3.16 ± 0.43 |
| AGUGAGCAAUAUUACGAUGG | -3.11 ± 0.24 | -2.26 ± 0.25 |
| AGUGAGCAAUAUUACGCAGU | -3.01 ± 0.24 | -0.67 ± 0.2 |
